Experimental data published in the RNAGym collection of RNA variant scans (doi:10.1093/nar/gkz1192).

B1: CPEB3 Ribozyme (parent)
chain: UAACAGGGGGCCACAGCAGAAGCGUUCACGUCGCAGCCCCUGUCAGAUUCUGGUGAAUCUGCGAAUUCUGCUGUAUAUCUC

Variants of: B1
Assay: self-cleavage, relative activity (ratio to wild type); higher = more cleavage; in vitro, sequencing
In short: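 Barcoded CPEB3 ribozyme mutants, produced by rounds of error-prone PCR, self-cleaved while being transcribed with T7 RNA polymerase for 5 hours at 37°C and during a subsequent 15 min DNase I step before EDTA was added. Sequencing of template-switched cDNA on Illumina gave cleaved and total reads, and DNA sequencing assigned barcodes to variants. Each variant's relative activity is its cleaved/total read fraction divided by the unmutated ribozyme's fraction, averaged across three batches. A variant needed a minimum of 5 reads.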

Variant | self-cleavage
UAACAGGGGGCCACAGCAGAAGCGUUCACGUCGCAGCCCCUGUCAGAUUCUGGUGAAUCUGCGAAUUGUGCUGAAUAUCUC [C68G U74A] | 0.43
UAACAGGGGGCCACAGCAGAAGCGUUCACGUCGCAGCCCCUGUCAGAUUCUGGUGAAUCUGCGAAUUAUGCUUUAUAUCUC [C68A G73U] | 0.85
UAACAGGGGGCCACAGCAGAAGCGUUCACGUCGCAGCCCCUGUCAGAUUCUGGUGAAUCUGCGAAUUGUGCUGUAUGUCUC [C68G A77G] | 0.61
UAACAGGGGGCCACAGCAGAAGCGUUCACGUCGCAGCCCCUGUCAGAUUCUGGUGAAUCUGCGAAUUGUGCUGUAUACCUC [C68G U78C] | 0.69
UAACAGGGGGCCACAGCAGAAGCGUUCACGUCGCAGCCCCUGUCAGAUUCUGGUGAAUCUGCGAAUUGCGCUGUAUAUCUC [C68G U69C] | 0.27
UAACAGGGGGCCACAGCAGAAGCGUUCACGUCGCAGCCCCUGUCAGAUUCUGGUGAAUCUGCGAAUUAUGCUGCAUAUCUC [C68A U74C] | 0.86
UAACAGGGGGCCACAGCAGAAGCGUUCACGUCGCAGCCCCUGUCAGAUUCUGGUGAAUCUGCGAAUUAUGCUGGAUAUCUC [C68A U74G] | 0.68
UAACAGGGGGCCACAGCAGAAGCGUUCACGUCGCAGCCCCUGUCAGAUUCUGGUGAAUCUGCGAAUUAUGCUGAAUAUCUC [C68A U74A] | 0.52
UAACAGGGGGCCACAGCAGAAGCGUUCACGUCGCAGCCCCUGUCAGAUUCUGGUGAAUCUGCGAAUUAUGCUGUUUAUCUC [C68A A75U] | 0.28
UAACAGGGGGCCACAGCAGAAGCGUUCACGUCGCAGCCCCUGUCAGAUUCUGGUGAAUCUGCGAAUGCUGCUGCAUAUCUC [U67G U74C] | 0.6
UAACAGGGGGCCACAGCAGAAGCGUUCACGUCGCAGCCCCUGUCAGAUUCUGGUGAAUCUGCGAAUUAUGCUGUAUACCUC [C68A U78C] | 0.5
UAACAGGGGGCCACAGCAGAAGCGUUCACGUCGCAGCCCCUGUCAGAUUCUGGUGAAUCUGCGAAUUAUGCCGUAUAUCUC [C68A U72C] | 0.2
UAACAGGGGGCCACAGCAGAAGCGUUCACGUCGCAGCCCCUGUCAGAUUCUGGUGAAUCUGCGAAUUAUGCAGUAUAUCUC [C68A U72A] | 0.4
UAACAGGGGGCCACAGCAGAAGCGUUCACGUCGCAGCCCCUGUCAGAUUCUGGUGAAUCUGCGAAUUAUGCUGUAUAUCCC [C68A U80C] | 0.53
UAACAGGGGGCCACAGCAGAAGCGUUCACGUCGCAGCCCCUGUCAGAUUCUGGUGAAUCUGCGAAUUUCGCUGUAUAUCUC [C68U U69C] | 0.43
UAACAGGGGGCCACAGCAGAAGCGUUCACGUCGCAGCCCCUGUCAGAUUCUGGUGAAUCUGCGAAUUUAGCUGUAUAUCUC [C68U U69A] | 0.22
UAACAGGGGGCCACAGCAGAAGCGUUCACGUCGCAGCCCCUGUCAGAUUCUGGUGAAUCUGCGAAUUUUGCUGUUUAUCUC [C68U A75U] | 1.02

Variant | self-cleavage
UAACAGGGGGCCACAGCAGAAGCGUUCACGUCGCAGCCCCUGUCAGAUUCUGGUGAAUCUGCGAAUUUUGCUGUGUAUCUC [C68U A75G] | 0.67
UAACAGGGGGCCACAGCAGAAGCGUUCACGUCGCAGCCCCUGUCAGAUUCUGGUGAAUCUGCGAAUUGUGCCGUAUAUCUC [C68G U72C] | 0.48
UAACAGGGGGCCACAGCAGAAGCGUUCACGUCGCAGCCCCUGUCAGAUUCUGGUGAAUCUGCGAAUGCUGCUGUAUAACUC [U67G U78A] | 0.67
UAACAGGGGGCCACAGCAGAAGCGUUCACGUCGCAGCCCCUGUCAGAUUCUGGUGAAUCUGCGAAUGCUGCUGUAUACCUC [U67G U78C] | 0.3
UAACAGGGGGCCACAGCAGAAGCGUUCACGUCGCAGCCCCUGUCAGAUUCUGGUGAAUCUGCGAAUGCUGCUGUAUAUCAC [U67G U80A] | 0.4
UAACAGGGGGCCACAGCAGAAGCGUUCACGUCGCAGCCCCUGUCAGAUUCUGGUGAAUCUGCGAAUGCUGCUGUAUAUCCC [U67G U80C] | 0.34
UAACAGGGGGCCACAGCAGAAGCGUUCACGUCGCAGCCCCUGUCAGAUUCUGGUGAAUCUGCGAAUUACGCUGUAUAUCUC [C68A U69C] | 0.17
UAACAGGGGGCCACAGCAGAAGCGUUCACGUCGCAGCCCCUGUCAGAUUCUGGUGAAUCUGCGAAUUAGGCUGUAUAUCUC [C68A U69G] | 0.42
UAACAGGGGGCCACAGCAGAAGCGUUCACGUCGCAGCCCCUGUCAGAUUCUGGUGAAUCUGCGAAUUAAGCUGUAUAUCUC [C68A U69A] | 0.25
UAACAGGGGGCCACAGCAGAAGCGUUCACGUCGCAGCCCCUGUCAGAUUCUGGUGAAUCUGCGAAUGCUGCAGUAUAUCUC [U67G U72A] | 0.36
UAACAGGGGGCCACAGCAGAAGCGUUCACGUCGCAGCCCCUGUCAGAUUCUGGUGAAUCUGCGAAUGCUGCCGUAUAUCUC [U67G U72C] | 0.14
UAACAGGGGGCCACAGCAGAAGCGUUCACGUCGCAGCCCCUGUCAGAUUCUGGUGAAUCUGCGAAUUAUUCUGUAUAUCUC [C68A G70U] | 0.36
UAACAGGGGGCCACAGCAGAAGCGUUCACGUCGCAGCCCCUGUCAGAUUCUGGUGAAUCUGCGAAUUGUGCUGUAUAUCUC [C68G] | 0.47
UAACAGGGGGCCACAGCAGAAGCGUUCACGUCGCAGCCCCUGUCAGAUUCUGGUGAAUCUGCGAAUUAUGCUGUAUAUCUC [C68A] | 0.41
UAACAGGGGGCCACAGCAGAAGCGUUCACGUCGCAGCCCCUGUCAGAUUCUGGUGAAUCUGCGAAUUUUGCUGUAUAUCUC [C68U] | 1.06
UAACAGGGGGCCACAGCAGAAGCGUUCACGUCGCAGCCCCUGUCAGAUUCUGGUGAAUCUGCGAAUUAUGCUGUACAUCUC [C68A U76C] | 0.54
UAACAGGGGGCCACAGCAGAAGCGUUCACGUCGCAGCCCCUGUCAGAUUCUGGUGAAUCUGCGAAUUAUGCUGUAUAUCUA [C68A C81A] | 0.6
